Measured values reported in publication PMC8771699 (ACS Omega, 2022).

Test: FE-SEM self-assembly
Type: physicochemical
Settings: HEPES pH 7.4, porphyrin 1.15 × 10^–3 M, peptide 2.3 × 10^–3 M, time of incubation 7 days

For “RGDSGAITIGH [RGDSGAITIGH + Py3P-Lys-NTA + Ni^2+]”, the self-assembled nanostructure morphology was “porous fibrillar network”.
